In US8591913B2, “Methods of decreasing adipose tissue” (Toru Miyazaki, priority 2009, dated 2013):
“Also recorded” adds a separate entry of the source.

Legend:
FAS [1] = molecular target: T1, FAS (Mus musculus, UniProt P19096); test: FAS enzyme activity in lysates of loaded 3T3-L1 cells (malonyl-CoA consumption); assay type: cell-based; details: C75 25 μM versus AIM 5 μg/mL, schedules (d) and (f)
T1 construct: cell lysates were prepared, and the enzyme activity of FAS was measured; endogenous in cells; host or cells: 3T3-L1 cells (differentiating or differentiated)
T1 sequence (P19096 whole entry): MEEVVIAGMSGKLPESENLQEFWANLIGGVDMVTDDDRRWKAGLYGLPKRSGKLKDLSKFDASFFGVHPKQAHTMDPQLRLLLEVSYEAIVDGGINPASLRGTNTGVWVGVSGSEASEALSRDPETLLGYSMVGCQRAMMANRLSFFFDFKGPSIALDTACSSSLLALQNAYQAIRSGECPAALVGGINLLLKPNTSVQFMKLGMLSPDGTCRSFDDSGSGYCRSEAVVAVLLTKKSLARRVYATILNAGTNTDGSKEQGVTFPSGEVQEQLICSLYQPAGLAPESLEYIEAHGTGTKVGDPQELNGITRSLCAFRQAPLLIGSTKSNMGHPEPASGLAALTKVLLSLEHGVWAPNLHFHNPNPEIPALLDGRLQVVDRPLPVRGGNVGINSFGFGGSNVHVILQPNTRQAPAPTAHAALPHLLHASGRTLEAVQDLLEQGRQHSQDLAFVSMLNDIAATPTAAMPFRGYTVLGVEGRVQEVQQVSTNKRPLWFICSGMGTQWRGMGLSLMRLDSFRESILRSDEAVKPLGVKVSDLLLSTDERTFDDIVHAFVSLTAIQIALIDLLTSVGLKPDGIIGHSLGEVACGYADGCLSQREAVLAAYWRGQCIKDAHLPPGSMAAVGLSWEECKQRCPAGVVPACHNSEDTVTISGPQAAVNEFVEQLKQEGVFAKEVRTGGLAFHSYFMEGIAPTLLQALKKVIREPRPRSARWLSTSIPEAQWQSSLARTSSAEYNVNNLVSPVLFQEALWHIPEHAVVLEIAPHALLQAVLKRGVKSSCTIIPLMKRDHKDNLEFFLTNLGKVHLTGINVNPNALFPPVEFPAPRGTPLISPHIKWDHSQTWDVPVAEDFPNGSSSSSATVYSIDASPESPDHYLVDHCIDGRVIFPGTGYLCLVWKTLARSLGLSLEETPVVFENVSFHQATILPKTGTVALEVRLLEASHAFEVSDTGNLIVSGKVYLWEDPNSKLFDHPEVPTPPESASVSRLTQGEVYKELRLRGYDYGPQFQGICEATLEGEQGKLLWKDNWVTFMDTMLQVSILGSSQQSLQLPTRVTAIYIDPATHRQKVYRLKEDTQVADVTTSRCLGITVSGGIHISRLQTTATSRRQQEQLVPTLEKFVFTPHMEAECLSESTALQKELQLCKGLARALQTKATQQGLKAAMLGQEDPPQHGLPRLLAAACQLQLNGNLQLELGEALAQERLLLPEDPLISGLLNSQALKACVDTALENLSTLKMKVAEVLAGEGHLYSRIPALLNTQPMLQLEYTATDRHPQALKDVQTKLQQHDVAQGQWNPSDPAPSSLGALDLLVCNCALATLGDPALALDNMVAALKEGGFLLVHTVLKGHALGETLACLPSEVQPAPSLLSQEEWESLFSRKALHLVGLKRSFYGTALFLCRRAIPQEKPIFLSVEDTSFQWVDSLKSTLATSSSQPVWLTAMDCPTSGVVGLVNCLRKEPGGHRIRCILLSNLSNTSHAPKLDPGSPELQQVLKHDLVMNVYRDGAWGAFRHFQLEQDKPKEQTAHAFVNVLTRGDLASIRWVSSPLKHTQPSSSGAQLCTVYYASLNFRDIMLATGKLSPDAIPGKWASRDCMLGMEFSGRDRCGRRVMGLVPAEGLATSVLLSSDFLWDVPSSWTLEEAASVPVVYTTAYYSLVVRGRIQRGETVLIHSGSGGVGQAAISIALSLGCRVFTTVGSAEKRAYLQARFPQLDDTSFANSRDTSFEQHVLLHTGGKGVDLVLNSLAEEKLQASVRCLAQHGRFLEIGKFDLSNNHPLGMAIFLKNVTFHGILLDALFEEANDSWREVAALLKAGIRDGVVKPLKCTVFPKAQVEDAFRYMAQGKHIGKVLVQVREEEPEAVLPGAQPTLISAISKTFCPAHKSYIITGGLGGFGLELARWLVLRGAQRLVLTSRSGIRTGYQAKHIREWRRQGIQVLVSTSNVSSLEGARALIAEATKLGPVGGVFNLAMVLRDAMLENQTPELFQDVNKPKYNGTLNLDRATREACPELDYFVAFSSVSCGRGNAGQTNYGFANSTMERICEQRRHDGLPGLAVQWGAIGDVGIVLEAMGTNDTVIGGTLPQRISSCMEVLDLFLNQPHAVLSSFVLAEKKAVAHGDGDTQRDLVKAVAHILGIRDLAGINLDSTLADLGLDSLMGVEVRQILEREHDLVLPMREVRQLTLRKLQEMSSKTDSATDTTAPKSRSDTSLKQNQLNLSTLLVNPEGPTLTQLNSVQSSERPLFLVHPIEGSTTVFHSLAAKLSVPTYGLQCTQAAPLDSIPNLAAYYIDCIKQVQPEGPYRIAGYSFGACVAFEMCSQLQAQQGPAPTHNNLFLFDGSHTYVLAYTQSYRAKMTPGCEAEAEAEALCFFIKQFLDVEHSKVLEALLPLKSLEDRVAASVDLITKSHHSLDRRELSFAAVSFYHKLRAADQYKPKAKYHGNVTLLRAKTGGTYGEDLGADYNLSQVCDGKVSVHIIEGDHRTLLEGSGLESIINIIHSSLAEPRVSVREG
Description: Whether AIM affected an enzyme activity of FAS or not was examined.
In addition, as a schedule (f) similar to the above-mentioned schedule (e), AIM was loaded for 4 days (day 8 to day 12) after the 3T3-L1 cells differentiated, subsequently the cells were collected on the 10th day (day 12) after the initiation of the differentiation induction, cell lysates were prepared, and the enzyme activity of FAS was measured. The enzyme activity of FAS was measured based on a consumption amount of malonyl-CoA.
(§1) In addition, using a FAS inhibitor (C75) in place of AIM, the FAS inhibitor at a concentration of 25 μM was loaded according to the schedules (d) and (f), and as was the case with the above-mentioned AIM, the cells were collected on the 2nd day (day 4: schedule (d)) and 10th day (day 12: schedule (f)) after the initiation of the differentiation induction, and the enzyme activity of FAS was measured.
Further, for comparison, the cells cultured without loading AIM in the above-mentioned schedule (a) were also collected at times of the 2nd day (day 4) and 10th day (day 12) after the initiation of the differentiation induction, and the enzyme activity of FAS was measured.
FIG. 11B and FIG. 11C illustrate the results of measuring the FAS enzyme activity (Fatty acid synthase activity) (nmol NADPH/min/mg protein). FIG. 11B illustrates the results obtained on the 2nd day (day 4) after the initiation of the differentiation induction in the case of loading no AIM according to the schedule (a) (None), the case of loading AIM according to the schedule (d) (AIM (5 μg/mL)), and the case of loading the FAS inhibitor according to the schedule (d) (C75 (25 μM)). FIG. 11C illustrates the results obtained on the 10th day (day 12) after the initiation of the differentiation induction in the case of loading no AIM according to the schedule (a) (None), the case of loading AIM according to the schedule (f) (AIM (5 μg/mL)), and the case of loading the FAS inhibitor according to the schedule (f) (C75 (25 μM)).

mice = details: administration of C75 to mice, reported; cited from earlier work
FAS [2] = molecular target: T2, FAS (Homo sapiens, UniProt P49327); test: Co-immunoprecipitation of HA-tagged AIM and FLAG-tagged FAS in HEK293T cells; assay type: binding; details: HEK293T cells co-expressing HA-tagged mouse AIM and FLAG-tagged FAS, anti-FLAG or anti-HA antibody
T2 construct: expressed in transfected cells; host or cells: HEK293T
T2 sequence (P49327 whole entry): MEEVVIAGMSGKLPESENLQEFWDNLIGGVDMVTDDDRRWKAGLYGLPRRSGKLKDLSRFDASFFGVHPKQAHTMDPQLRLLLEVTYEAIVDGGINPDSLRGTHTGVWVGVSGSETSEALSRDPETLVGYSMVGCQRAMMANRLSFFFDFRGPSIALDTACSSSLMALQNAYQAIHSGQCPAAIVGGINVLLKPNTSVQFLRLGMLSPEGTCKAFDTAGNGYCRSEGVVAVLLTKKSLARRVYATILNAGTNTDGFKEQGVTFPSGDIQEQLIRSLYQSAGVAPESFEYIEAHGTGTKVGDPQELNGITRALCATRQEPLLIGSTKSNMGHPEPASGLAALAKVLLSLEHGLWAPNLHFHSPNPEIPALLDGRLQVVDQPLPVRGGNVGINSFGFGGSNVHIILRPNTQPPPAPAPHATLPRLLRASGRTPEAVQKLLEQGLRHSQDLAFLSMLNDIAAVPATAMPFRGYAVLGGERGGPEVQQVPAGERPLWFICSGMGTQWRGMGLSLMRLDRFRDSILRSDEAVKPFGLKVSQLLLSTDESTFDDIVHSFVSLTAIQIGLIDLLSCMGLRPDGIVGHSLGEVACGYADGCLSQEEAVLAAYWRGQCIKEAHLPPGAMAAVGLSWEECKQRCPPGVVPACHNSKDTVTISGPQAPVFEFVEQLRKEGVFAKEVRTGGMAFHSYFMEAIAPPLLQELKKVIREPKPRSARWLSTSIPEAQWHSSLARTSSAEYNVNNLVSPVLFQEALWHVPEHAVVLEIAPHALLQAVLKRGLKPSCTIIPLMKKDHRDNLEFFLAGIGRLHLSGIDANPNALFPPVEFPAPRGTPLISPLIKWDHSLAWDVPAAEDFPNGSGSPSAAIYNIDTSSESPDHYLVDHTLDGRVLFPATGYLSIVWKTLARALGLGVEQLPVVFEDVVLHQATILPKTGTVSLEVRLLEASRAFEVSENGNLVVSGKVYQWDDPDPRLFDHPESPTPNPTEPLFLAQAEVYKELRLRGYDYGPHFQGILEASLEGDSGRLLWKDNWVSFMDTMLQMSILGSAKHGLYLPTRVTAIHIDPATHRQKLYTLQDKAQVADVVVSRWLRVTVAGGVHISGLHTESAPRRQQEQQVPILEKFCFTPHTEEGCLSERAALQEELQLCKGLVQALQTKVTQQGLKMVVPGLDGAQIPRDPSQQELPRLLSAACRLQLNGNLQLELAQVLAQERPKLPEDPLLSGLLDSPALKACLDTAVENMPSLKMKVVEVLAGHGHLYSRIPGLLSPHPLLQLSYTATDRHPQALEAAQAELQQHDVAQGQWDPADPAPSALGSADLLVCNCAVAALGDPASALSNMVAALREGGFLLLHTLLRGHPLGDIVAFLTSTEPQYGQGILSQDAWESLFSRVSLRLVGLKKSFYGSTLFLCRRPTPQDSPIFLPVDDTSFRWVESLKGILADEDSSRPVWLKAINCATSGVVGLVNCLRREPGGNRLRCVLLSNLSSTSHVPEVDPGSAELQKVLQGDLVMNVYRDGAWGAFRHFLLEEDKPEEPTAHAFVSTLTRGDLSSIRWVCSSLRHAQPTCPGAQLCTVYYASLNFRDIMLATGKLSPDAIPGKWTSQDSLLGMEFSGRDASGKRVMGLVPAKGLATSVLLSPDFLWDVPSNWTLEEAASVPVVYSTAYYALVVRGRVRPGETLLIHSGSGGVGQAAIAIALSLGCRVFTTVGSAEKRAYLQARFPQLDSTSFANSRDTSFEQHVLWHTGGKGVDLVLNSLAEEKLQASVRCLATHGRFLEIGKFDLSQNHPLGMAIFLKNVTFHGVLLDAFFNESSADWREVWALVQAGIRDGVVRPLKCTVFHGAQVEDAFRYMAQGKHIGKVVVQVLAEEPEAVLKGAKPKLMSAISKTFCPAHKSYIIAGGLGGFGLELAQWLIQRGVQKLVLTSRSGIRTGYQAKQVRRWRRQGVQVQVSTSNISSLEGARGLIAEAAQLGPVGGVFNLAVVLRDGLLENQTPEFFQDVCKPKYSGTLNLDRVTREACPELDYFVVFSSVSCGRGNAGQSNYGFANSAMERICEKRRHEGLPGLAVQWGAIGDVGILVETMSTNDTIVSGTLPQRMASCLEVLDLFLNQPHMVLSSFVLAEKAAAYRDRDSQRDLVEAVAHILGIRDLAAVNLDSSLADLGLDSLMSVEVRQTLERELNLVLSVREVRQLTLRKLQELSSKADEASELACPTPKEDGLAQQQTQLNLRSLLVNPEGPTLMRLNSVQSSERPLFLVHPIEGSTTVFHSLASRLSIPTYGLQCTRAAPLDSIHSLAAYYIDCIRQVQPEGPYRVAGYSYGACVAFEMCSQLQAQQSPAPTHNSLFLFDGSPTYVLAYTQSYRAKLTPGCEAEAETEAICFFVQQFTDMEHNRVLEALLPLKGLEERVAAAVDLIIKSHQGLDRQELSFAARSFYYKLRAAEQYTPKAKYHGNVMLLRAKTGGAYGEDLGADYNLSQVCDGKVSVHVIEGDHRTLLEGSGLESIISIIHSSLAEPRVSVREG
Description: Thus, in order to confirm the fact, first, HEK293T cells which co-expressed both AIM (mouse AIM) fused with an HA-tag and FAS fused with a FLAG-tag were produced. Also, the HEK293T cells were collected after being cultured for a predetermined period of time, its cell lysate was prepared, and an immunoprecipitation was performed using an anti-FLAG antibody.
In addition, a co-immunoprecipitation study was performed using HEK293T cells which express both FAS tagged with FLAG and mouse AIM tagged with HA, and an anti-FLAG antibody or an anti-HA antibody.

3T3-L1 preadipocytes = test: Differentiation of 3T3-L1 preadipocytes into mature adipocytes, oil-red-o staining; assay type: cell-based, mouse; details: mouse AIM and human AIM compared, in vitro
Description: In order to examine how AIM produced by the macrophages infiltrating the adipose tissues works on surrounding adipocytes, an experiment in which AIM was loaded during a culture process of differentiating 3T3-L1 preadipocytes into the mature adipocytes was performed.
A recombinant mouse AIM protein and a recombinant human AIM protein were used as AIM. Those recombinant AIM proteins were prepared by culturing human-derived HEK293T cells transfected with a vector expressing mouse AIM or human AIM and isolating and purifying the protein from its culture supernatant. The same recombinant AIM proteins were also used as AIM in other examples shown below. AIM was loaded by adding AIM at a concentration of 5 μg/mL to the culture medium.
Differentiation induction (Induction) of the 3T3-L1 cells was initiated by first culturing the 3T3-L1 cells for 4 days (day −2 to day 2) to proliferate the cells (Cell proliferation) and subsequently culturing the cells in a culture medium containing insulin, dexamethasone (DEX), and isobutylmethylxanthine (IBMX) for 2 days (day 2 to day 4). The differentiation induction was further continued by culturing the cells in a culture medium containing insulin for 2 days (day 4 to day 6).
After the period of the differentiation induction (day 2 to day 6), the culture was continued in a culture medium not containing those differentiation-inducing factors. Then, the cells on the 10th day (day 12) after the initiation of the stimuli for differentiation induction were stained with oil-red-o, and the differentiation of the 3T3-L1 cells to mature adipocytes was observed.
as §1
FIG. 12A and FIG. 12B show the results of staining the cells with oil-red-o and analyzing the gene expression by RT-PCR on the 2nd day (day 4) after the initiation of the differentiation induction in the case of loading no AIM according to the schedule (a) (None), the case of loading AIM according to the schedule (d) (AIM (5 μg/mL)), and the case of loading the FAS inhibitor according to the schedule (d) (C75 (25 μM)), respectively.

[3] = system: mature adipocytes (differentiated 3T3-L1 cells); test: Induction of lipolysis in mature 3T3-L1 adipocytes (lipid droplets, glycerol and free fatty acid efflux); assay type: cell-based, mouse; details: mouse AIM and human AIM compared, same range of concentrations in vitro
Description: The effect of AIM on mature adipocytes was examined.
Then, the cells on the 10th day (day 12) after the initiation of the stimuli for differentiation induction were stained with oil-red-o. The number of cells having lipid droplets was counted. Further, the diameter of lipid droplets was measured in the cells having lipid droplets. For comparison, the number of the cells was counted and the diameter of lipid droplets was measured for the cells cultured in the above-mentioned schedules (a) and (d).
Further, the supernatant of the culture medium after the cells were cultured while loading AIM according to the schedule (e) was collected, and amounts of glycerol and free fatty acid (FFA) contained in the supernatant were measured by ELISA. For the comparison, the amounts of glycerol and free fatty acid in the culture supernatant obtained according to the schedule (a) were also measured.
In order to avoid adsorption of free fatty acid to albumin contained in the culture medium, the culture medium supplemented with 10% FBS (fetal bovine serum) was exchanged to a serum-free culture medium on the 10th day (day 12) after the initiation of the differentiation induction, further the cells were cultured in the serum-free culture medium for 6 hours, and subsequently the amounts of glycerol and free fatty acid contained in the supernatant of the serum-free culture medium were measured.
FIG. 7A and FIG. 7B illustrate the evaluation results of the number (per 10^4 μm^2) of cells having lipid droplets (Droplet (+) cells) and the relative diameter of lipid droplets (%) obtained according to the schedules (a), (d), and (e) (Exp. a, d, and e), respectively. The relative diameter of lipid droplets illustrated in FIG. 7B was calculated by defining the diameter of lipid droplets in the cells obtained according to the schedule (a) without AIM loading as 100%. FIG. 8A and FIG. 8B illustrate the concentration of glycerol (Glycerol Efflux, mM) and the concentration of free fatty acid (FFA Efflux, ×10 mM) in the culture medium obtained according to the schedules (a) and (e) (Exp. a and e), respectively.
In addition, FIG. 13A and FIG. 13B illustrate the results of measuring the glycerol concentration (glycerol efflux, mM) and the free fatty acid concentration (FFA efflux, ×10 mM) in the culture medium on the 10th day (day 12) after the initiation of the differentiation induction in the case of loading no AIM according to the schedule (a) (None), the case of loading AIM according to the schedule (f) (AIM), and the case of loading the FAS inhibitor according to the schedule (f) (C75), respectively.

[4] = system: human mesenchymal stem cells (HMSCs); test: Adipogenesis of human mesenchymal stem cells (HMSCs) with rhAIM; assay type: cell-based
Description: In order to confirm that AIM also acts upon adipogenesis in human cells, the differentiation of human mesenchymal stem cells (HMSCs) (Lonza Walkersville Inc., USA) was stimulated in the presence or absence of recombinant human AIM (rhAIM).
That is, HMSCs were cultured in a mesenchymal stem cell basal medium (MSCBM) (Lonza Walkersville Inc.) for 10 days until the cells became confluent. Subsequently, the adipogenesis of the cells was stimulated by culturing the cells in the presence or absence of rhAIM (10 μg/mL) together with human insulin, MCGS, dexamethasone, indomethacin, and IBMX for 3 days (adipogenesis induction) (reference: Janderrova et al., Obes. Res., 11: 65, 2003). After the stimulation, the cells were cultured in MSCBM in which human insulin and MCGS had been added for an additional 10 days. Then, the cells were collected and stained with oil-red-o.
FIG. 36A, FIG. 36B, and FIG. 36C show the results of observing the cells before the stimulation of adipogenesis (Pre-stimulation), after the stimulation in the absence of rhAIM (rhAIM (−)), and after the stimulation in the presence of 10 μg/mL rhAIM (rhAIM (10 μg/mL)) under the phase contrast microscope, respectively.

In the case of `C=C1C(=O)OC(CCCCCCCC)C1C(=O)O` (stereo not shown) [C75], the “levels of reduction of the FAS enzyme activity, C75 compared with AIM” value (FAS [1]) is listed as “almost the same”, the “amount of neuropeptide Y (NPY) produced in the hypothalamus” value (mice) is listed as “reduces” and the appetite (mice) is listed as “remarkable loss of appetite”. For the same molecule, the body weight (mice) was “body weight loss; also recorded: totally accelerated”.

B1: HA-AIM: AIM (mouse AIM) fused with an HA-tag (protein)
chain: ESPTKVQLVGGAHRCEGRVEVEHNGQWGTVCDDGWDRRDVAVVCRELNCGAVIQTPRGASYQPPASEQRVLIQGVDCNGTEDTLAQCELNYYVFDCSHEEDAGAQCENPDSDLLFIPEDVRLVDGPGHCQGRVEVLHQSQWSTVCKAGWNLQVSKVVCRQLGCGRALLTYGSCNKNTQGKGPIWMGKMSCSGQEANLRSCLLSRLENNCTHGEDTWMECEDPFELKLVGGDTPCSGRLEVLHKGSWGSVCDDNWGEKEDQVVCKQLGCGKSLHPSPKTRKIYGPGAGRIWLDDVNCSGKEQSLEFCRHRLWGYHDCTHKEDVEVICTDFDV
modifications: left off: small tags and cut ends
notes: AIM (mouse AIM) fused with an HA-tag
With B1 the “co-precipitation with FLAG-tagged FAS” value (FAS [2]) was “co-precipitation” and the “co-precipitation with FLAG-tagged FAS” value (FAS [2]; listed as mouse AIM tagged with HA) was “co-precipitated mutually”.

B2: human AIM: protein consisting of the amino acid sequence shown in SEQ ID NO: 1; recombinant, purified from HEK293T culture supernatant (protein)
chain: MALLFSLILAICTRPGFLASPSGVRLVGGLHRCEGRVEVEQKGQWGTVCDDGWDIKDVAVLCRELGCGAASGTPSGILYEPPAEKEQKVLIQSVSCTGTEDTLAQCEQEEVYDCSHDEDAGASCENPESSFSPVPEGVRLADGPGHCKGRVEVKHQNQWYTVCQTGWSLRAAKVVCRQLGCGRAVLTQKRCNKHAYGRKPIWLSQMSCSGREATLQDCPSGPWGKNTCNHDEDTWVECEDPFDLRLVGGDNLCSGRLEVLHKGVWGSVCDDNWGEKEDQVVCKQLGCGKSLSPSFRDRKCYGPGVGRIWLDNVRCSGEEQSLEQCQHRFWGFHDCTHQEDVAVICSG
modifications: human
notes: recombinant, purified from HEK293T culture supernatant
With B2 the “differentiation of 3T3-L1 cells derived from mice / differentiation inhibitory function” value (3T3-L1 preadipocytes) was “inhibited; also recorded: similarly exerted”, the “lipolysis induction function in adipocytes derived from mice” value [3] was “similarly exerted” and the “differentiation of HMSCs” value ([4]; rhAIM 10 μg/mL during 3 days adipogenesis induction, oil-red-o) was “dramatically inhibited”. For the same molecule, the “mRNA level of Glut-4” value ([4]; rhAIM 10 μg/mL, RT-PCR, compared with absence of rhAIM) was “remarkably decreased”.
